{"source": "patent US6852509", "about": "(dated 2005)", "target": "T1, wild-type p53 protein (UniProt P04637 1-393)", "T1 construct": "also called purified p53", "T1 sequence (P04637 whole entry)": "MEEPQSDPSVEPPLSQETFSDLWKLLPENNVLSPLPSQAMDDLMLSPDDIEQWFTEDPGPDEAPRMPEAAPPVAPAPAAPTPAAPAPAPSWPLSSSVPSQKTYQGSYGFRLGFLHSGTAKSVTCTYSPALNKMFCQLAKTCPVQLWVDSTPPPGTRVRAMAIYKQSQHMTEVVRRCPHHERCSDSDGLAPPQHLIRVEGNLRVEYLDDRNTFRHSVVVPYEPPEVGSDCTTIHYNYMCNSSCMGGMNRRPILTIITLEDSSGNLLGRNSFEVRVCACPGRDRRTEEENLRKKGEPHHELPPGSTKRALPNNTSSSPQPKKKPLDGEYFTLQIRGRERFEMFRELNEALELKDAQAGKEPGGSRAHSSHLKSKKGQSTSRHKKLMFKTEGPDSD", "experiment": "ELISA on plates coated with purified p53", "excerpt": "The two IgGs are then visualized using a secondary anti-IgG antibody which is coupled to alkaline phosphatase. The biotinylated serum is visualized using extravidin which is coupled to alkaline phosphatase. The ScFvs are visualized using the anti-myc antibody 9E10 and then using an anti-IgG antibody which is coupled to alkaline phosphatase.", "data": [{"binder": "ScFv 11D3-myc (scFv, Produced from bacterial periplasm; also called 11D3 ScFv; D3M ScFv; not shown: myc tag fused for detection) scFv: QVKLQESGAELVRSGASVNLSCTASGFNIKDYYMHWVKQRPEEGLEWIGYIDPESGETEYAPNFQGKATVTADTSSNTAYLHLSSLTSEDTTVYYCNAVIYYEYDGYALDYWGQGTTVTVSSGGGGSGGGGSGGGGSDIELTQSPSSLAVSAGEKVAMSCKSSQSLFNSRTRKNYLAWYQQKPGQSPKVLIYWASTRESGVPDRFTGSGSGTDFTLTISSVQAEDLAVYYCKQSYNLPTFGGGTKLEIK", "values": [{"measurement": "binding result", "value": "binds"}]}, {"binder": "ScFv 421-myc (scFv, Produced from bacterial periplasm; not shown: myc tag fused for detection) scFv: QVQLQQSGAELVRSGASVKLSCTASGFNIKDYYMHWVKQRPEQGLEWIGWIDPENGDTEYAPKFQGKATMTADTSSNTAYLQLSSLASEDTAVYYCNFYGDALDYWGQGTTVTVSSGGGGSGGGGSGGGGSDVLMTQTPLTLSVTIGQPASISCKSSQSLLDSDGKTYLNWLLQRPGQSPKRLIYLVSKLDSGVPDRFTGSGSGTDFTLKINRVEAEDLGVYYCWQGTHSPLTFGAGTKLEIK", "values": [{"measurement": "binding result", "value": "binds"}]}]}
